Values joined by “and” are separate entries in the source; they are usually repeats but may differ in a detail not shown here. Equal entries are not always repeated.
B1: recombinant HSP22 (HSP22rec), mature mitochondrial small heat shock protein HSP22 from pea (natural protein, UniProt P46254 32-202, looked up)
chain: FNTNAMRQYDQHSDDRNVDVYRHSFPRTRRDDLLLSDVFDPFSPPRSLSQVLNMVDLLTDNPVLSAASRRGWDARETEDALFLRLDMPGLGKEDVKISVEQNTLTIKGEEGAKESEEKEKSGRRFSSRIDLPEKLYKIDVIKAEMKNGVLKVTVPKMKEEERNNVINVKVD
notes: mature HSP22 of pea, amplified from a cDNA encoding the HSP22 precursor (UniProtKB P46254); 19.5 kDa and 170 residues stated; Cloned by NdeI/BamHI into pET3a, so an added initiator methionine is likely (surmise); No tag is mentioned; source: E. coli B834 pLys (pET3a, pET-HSP22), purified (anion exchange HitrapQ, two SEC steps on Superdex 200); also unpurified in soluble extract of the …
B2: native HSP22 of pea seed mitochondria (natural protein, UniProt P46254 32-202, looked up)
chain: B1 chain
notes: mitochondrial small heat shock protein HSP22 of pea, native protein in the soluble (matrix) extract of mitochondria from 22 h imbibed pea seeds; Detected by Western blot with anti-HSP22 peptide antibodies; source: endogenous, soluble protein extract of pea seed mitochondria

What was measured:
[1] = molecular target: the molecule itself; experiment: SEC; purified HSP22rec (100 µg) at 20 °C; Superdex 200 10/300GL, 0.25 mL/min, 20 mM Tris pH 7.4, 1 mM EDTA, 150 mM NaCl; masses from a calibration curve with standard proteins
[2] = molecular target: T1, rhodanese from bovine liver (bovine, UniProt P00586 1-297); experiment: co-sedimentation; heat aggregation assay with purified proteins: 8 to 25 µg of proteins in 50 µL MOPS 50 mM pH 7.5, DTT 1 mM, EDTA 1 mM, heated 20 min at 50 °C, 15 min on ice, centrifuged 30 min at 20,000 g; supernatants and pellets by SDS-PAGE; 1:1 mass ratio or molar ratios up to 9:1; conditions: both partners purified
T1 construct: rhodanese (thiosulfate sulfurtransferase) from bovine liver; called a monomeric enzyme of 33 kDa; In the assays it is heat denatured (50 °C) and aggregating; source: bought: Merck KGaA (rhodanese from bovine liver II)
T1 sequence (looked up): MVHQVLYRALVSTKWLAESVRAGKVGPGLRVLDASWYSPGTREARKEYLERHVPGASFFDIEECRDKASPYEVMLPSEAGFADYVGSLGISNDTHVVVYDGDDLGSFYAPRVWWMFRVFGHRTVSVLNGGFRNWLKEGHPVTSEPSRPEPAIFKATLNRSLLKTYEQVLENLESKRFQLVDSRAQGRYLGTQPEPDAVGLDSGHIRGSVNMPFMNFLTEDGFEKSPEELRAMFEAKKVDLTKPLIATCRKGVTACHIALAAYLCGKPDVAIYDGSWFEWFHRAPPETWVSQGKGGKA

[3] = molecular target: the molecule itself; experiment: SEC; pea seed mitochondrial soluble proteins (7 mg) separated at 20 °C; fractions analysed by Western blot with the anti-HSP22 Cterm antibody

| Binder | stoichiometry N [1] | binding result [2] | stoichiometry N [3] |
| --- | --- | --- | --- |
| B1 | 20 mer and 12 mer and 8 mer | binds | – |
| B2 | – | – | 2 mer and 3 mer |
